Experimental data published in patent US6008320A, “Elastase inhibitor and process for preparing the same” (Korea Advanced Institute of Science and Technology, priority 1995, dated 1999).
“Also recorded” adds a separate entry of the source.

Tests used:
elastase [1] = target: T1, elastase (Homo sapiens, UniProt P08246); conditions: other elastase-inhibiting proteins in the prior art; read-out: inhibition constant; cited from earlier work
T1 sequence (P08246 30-267): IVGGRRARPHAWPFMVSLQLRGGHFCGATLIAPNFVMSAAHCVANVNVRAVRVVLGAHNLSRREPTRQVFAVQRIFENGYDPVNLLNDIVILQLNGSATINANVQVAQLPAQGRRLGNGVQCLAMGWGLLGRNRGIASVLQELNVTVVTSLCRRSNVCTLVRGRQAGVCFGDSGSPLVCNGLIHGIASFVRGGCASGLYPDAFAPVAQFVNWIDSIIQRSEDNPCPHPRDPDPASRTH

elastase [2] = test: Elastase-inhibiting activity assay (decrease in ρ-nitroaniline degrading activity of elastase); type: biochemical; conditions: 1 U = amount of inhibitor that decreases the degradation of 1 μM ρ-nitroaniline by elastase per minute; 37° C., 50 min
Experimental: The activity of the purified Guamerin was assayed as follows: 50 μl of elastase-containing solution(0.37 mg/ml) and 500 μl of 1 mM .rho.-nitroaniline were mixed together, and 50 μl of each of fractions obtained in the course of purification was added to the mixture, and left to react at 37° C. for 50 min. The absorbance(O.D.) at 440 nm calculated in terms of the hydrolysed .rho.-nitroaniline, was measured. O.D. values of the control and the active fractions were compared, and the activity of Guamerin was determined, based on the decrease in .rho.-nitroaniline degradating activity of elastase.
Protein was quantitatively assayed by Bradford method(see: Bradford, M. M., Anal. Biochem., 72: 248-254(1976)). In this regard, one unit(1 U) was defined as the amount of inhibitor that decreases the degradation of 1 μM .rho.-nitroaniline by elastase per minute.

elastase [3] = test: Specificity of inhibiting activity: elastase; type: biochemical; conditions: FIG. 4: HL-elastase (human leukocyte) and PP-elastase (porcine pancreas)
Experimental: (§1) The specific activities of Guamerin on the other types of proteases beside elastase, were studied; and, it was determined that: while it has no effect on papain, pepsin, thrombin, and factor Xa, Guamerin had about 15% of inhibiting-activity against trypsin, chymotrypsin, and subtilisin. […] In FIG. 4, HL-elastase and PP-elastase represent the ones isolated from human leukocyte and porcine pancreas, respectively.

papain = target: T2, papain (Carica papaya, UniProt P00784); test: Specificity of inhibiting activity: papain; type: biochemical
T2 sequence (P00784 134-345): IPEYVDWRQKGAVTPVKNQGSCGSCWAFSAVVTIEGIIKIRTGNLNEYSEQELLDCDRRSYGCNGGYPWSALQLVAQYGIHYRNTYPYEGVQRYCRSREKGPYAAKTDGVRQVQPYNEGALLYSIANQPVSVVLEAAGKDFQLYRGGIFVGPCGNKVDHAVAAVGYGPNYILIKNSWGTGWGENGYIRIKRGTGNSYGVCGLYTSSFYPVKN
Experimental: as §1

pepsin = pepsin (Homo sapiens, UniProt P0DJD8); test: Specificity of inhibiting activity: pepsin; type: biochemical
Chain of pepsin (P0DJD8 63-388): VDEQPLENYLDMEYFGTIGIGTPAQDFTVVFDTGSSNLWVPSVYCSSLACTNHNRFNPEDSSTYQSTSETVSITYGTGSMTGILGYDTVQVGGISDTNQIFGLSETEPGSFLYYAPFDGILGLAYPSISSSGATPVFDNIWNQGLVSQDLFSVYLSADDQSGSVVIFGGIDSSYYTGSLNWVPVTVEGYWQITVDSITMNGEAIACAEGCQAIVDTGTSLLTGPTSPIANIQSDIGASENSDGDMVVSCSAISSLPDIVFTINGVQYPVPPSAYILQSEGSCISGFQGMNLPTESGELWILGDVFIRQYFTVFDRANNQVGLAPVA
Experimental: as §1

thrombin = thrombin (Homo sapiens, UniProt P00734); test: Specificity of inhibiting activity: thrombin; type: biochemical
Experimental: as §1

factor Xa = factor Xa (Homo sapiens, UniProt P00742); test: Specificity of inhibiting activity: factor Xa; type: biochemical
Chain of factor Xa (P00742 235-488 limits assumed): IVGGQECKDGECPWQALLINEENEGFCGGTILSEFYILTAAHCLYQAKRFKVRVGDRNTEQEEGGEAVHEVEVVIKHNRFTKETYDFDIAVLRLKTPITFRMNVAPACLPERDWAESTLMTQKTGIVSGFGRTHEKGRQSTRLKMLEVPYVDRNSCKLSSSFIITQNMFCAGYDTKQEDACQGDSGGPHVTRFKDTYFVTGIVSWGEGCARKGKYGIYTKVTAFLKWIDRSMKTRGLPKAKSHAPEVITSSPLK
Experimental: as §1

trypsin = target: T3, trypsin (Bos taurus, UniProt P00760); test: Specificity of inhibiting activity: trypsin; type: biochemical
T3 construct: gene PRSS1
T3 sequence (P00760 24-246): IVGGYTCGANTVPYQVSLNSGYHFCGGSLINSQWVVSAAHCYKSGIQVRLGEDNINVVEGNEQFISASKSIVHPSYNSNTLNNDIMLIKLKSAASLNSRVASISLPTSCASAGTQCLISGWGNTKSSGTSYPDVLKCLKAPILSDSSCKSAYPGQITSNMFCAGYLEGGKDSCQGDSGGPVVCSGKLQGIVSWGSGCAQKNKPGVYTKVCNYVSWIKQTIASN
Experimental: as §1

chymotrypsin = chymotrypsin (Bos taurus, UniProt P00766); test: Specificity of inhibiting activity: chymotrypsin; type: biochemical
Experimental: as §1

subtilisin = test: Specificity of inhibiting activity: subtilisin; type: biochemical
Experimental: as §1

elastase [4] = target: T4, elastase (Homo sapiens, UniProt P08246); test: Determination of inhibition constant and inhibition mechanism; type: biochemical; conditions: FIG. 5
T4 sequence (P08246 30-247 limits assumed): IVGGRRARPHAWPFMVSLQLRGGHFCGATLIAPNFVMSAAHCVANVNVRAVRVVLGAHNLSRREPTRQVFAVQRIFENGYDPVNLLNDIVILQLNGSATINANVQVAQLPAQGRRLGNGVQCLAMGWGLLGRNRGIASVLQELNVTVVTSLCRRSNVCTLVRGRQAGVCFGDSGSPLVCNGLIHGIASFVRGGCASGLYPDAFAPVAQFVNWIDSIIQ

[5] = Heat stability of Guamerin activity; type: physicochemical; conditions: 40° C. to 100° C. at an interval of 10° C., 15 min
Experimental: To investigate the effect of heat on the activity of Guamerin, it was subjected to heating condition at an interval of 10° C. ranging from 40° C. to 100° C. for 15 min(see: FIG. 6).

Substance | Ki (elastase [1]) | Specific activity (elastase [2]) | inhibiting activity on elastase (elastase [3]) | effect on papain (papain) | effect on pepsin (pepsin) | effect on thrombin (thrombin) | effect on factor Xa (factor Xa) | inhibiting-activity against trypsin (trypsin) | inhibiting-activity against chymotrypsin (chymotrypsin) | inhibiting-activity against subtilisin (subtilisin) | mechanism of elastase inhibition (elastase [4]) | change in activity after heating [5]
elafin: elastase-inhibiting protein in the prior art, printed as isolated from european leeches (AQEPVKGPVSTKPGSCPIILIRCAMLNPPNRCLKDTDCPGIKKCCEGSCGMACFVPQ; UniProt P19957 61-117, looked up) | 0.6 nM |  |  |  |  |  |  |  |  |  |  | 
Guamerin: novel elastase-inhibiting protein isolated from a Korean leech, Guameri (Hirudo nipponia); 57 amino acids, 6,110 Da (VDENAEDTHGLCGEKTCSPAQVCLNNECACTAIRCMIFCPNGFKVDENGCEYPCTCA) |  | 361 units/mg | about 90% | no effect | no effect | no effect | no effect | about 15% | about 15% | about 15% | competitive inhibition | quite stable; also recorded: no change
